Source: PMC10541312 (The Journal of Experimental Medicine, 2023)
Substitutions are numbered along the chain they refer to. Names may count otherwise.

Assays:
Experiment in all cases: BLI; biotinylated CD123 ECD wt and variants captured on streptavidin biosensors; IL-3 as analyte, 500 to 7.8 nM in PBS pH7.4; association 300 s; steady-state analysis
Settings in all cases: both partners purified
[1] = molecular target: T1, CD123 wt ECD (amino acids 19–305), soluble protein (human, UniProt P26951 19-305, biotinylated (Biotinylation kit Type B) in the IL-3 BLI only)
T1 construct: human CD123 extracellular domain (ECD; amino acids 19–305); also called wt CD123; source: produced and purified by Icosagen
T1 sequence (looked up): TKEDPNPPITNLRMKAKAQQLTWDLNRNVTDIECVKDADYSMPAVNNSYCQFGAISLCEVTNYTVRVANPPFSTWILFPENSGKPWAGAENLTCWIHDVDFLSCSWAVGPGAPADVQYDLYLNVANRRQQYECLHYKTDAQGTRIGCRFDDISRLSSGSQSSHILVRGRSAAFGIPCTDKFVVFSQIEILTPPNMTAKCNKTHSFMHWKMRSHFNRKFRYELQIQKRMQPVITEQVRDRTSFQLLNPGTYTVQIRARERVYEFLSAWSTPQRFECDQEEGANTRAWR

[2] = molecular target: T2, CD123 E51T ECD (amino acids 19–305), soluble protein (human, UniProt P26951 19-305, E51T, biotinylated (Biotinylation kit Type B) in the IL-3 BLI only)
T2 construct: human CD123 extracellular domain (ECD; amino acids 19–305); source: produced and purified by Icosagen
T2 sequence (looked up): T1 sequence (looked up) with E33T

[3] = molecular target: T3, CD123 S59F ECD (amino acids 19–305), soluble protein (human, UniProt P26951 19-305, S59F, biotinylated (Biotinylation kit Type B) in the IL-3 BLI only)
T3 construct: human CD123 extracellular domain (ECD; amino acids 19–305); source: produced and purified by Icosagen
T3 sequence (looked up): T1 sequence (looked up) with S41F

[4] = molecular target: T4, CD123 R84E ECD (amino acids 19–305), soluble protein (human, UniProt P26951 19-305, R84E, biotinylated (Biotinylation kit Type B) in the IL-3 BLI only)
T4 construct: human CD123 extracellular domain (ECD; amino acids 19–305); source: produced and purified by Icosagen
T4 sequence (looked up): T1 sequence (looked up) with R66E

[5] = molecular target: T5, CD123 E51A ECD (amino acids 19–305), soluble protein (human, UniProt P26951 19-305, E51A, biotinylated (Biotinylation kit Type B) in the IL-3 BLI only)
T5 construct: human CD123 extracellular domain (ECD; amino acids 19–305); source: produced and purified by Icosagen
T5 sequence (looked up): T1 sequence (looked up) with E33A

[6] = molecular target: T6, CD123 E51Q ECD (amino acids 19–305), soluble protein (human, UniProt P26951 19-305, E51Q, biotinylated (Biotinylation kit Type B) in the IL-3 BLI only)
T6 construct: human CD123 extracellular domain (ECD; amino acids 19–305); source: produced and purified by Icosagen
T6 sequence (looked up): T1 sequence (looked up) with E33Q

Measured: binding result

B1: IL-3 (ligand, human, UniProt P08700 20-152, looked up)
chain: APMTQTTPLKTSWVNCSNMIDEIITHLKQPPLPLLDFNNLNGEDQDILMENNLRRPNLEAFNRAVKSLQNASAIESILKNLLPCLPLATAAPTRHPIHIKDGDWNEFRRKLTFYLKTLENAQAQQTTLSLAIF
notes: human interleukin-3, recombinant, Sino Biological PN 11858-H08H; also called interleukin-3; human IL-3; source: bought: Sino Biological (PN 11858-H08H)
binds: all assays above
